Assay results as given in publication PMC4973555, “Engineering Saccharomyces cerevisiae with the deletion of endogenous glucosidases for the production of flavonoid glucosides” (Microbial Cell Factories, 2016).

B1: SbGT34 (Scutellaria baicalensis) (protein)
chain: MGQLHIVLVPMIAHGHMIPMLDMAKLFSSRGVKTTIIATPAFAEPIRKARESGHDIGLTTTKFPPKGSSLPDNIWSLDQVTDDLLPHFFRALELLQEPVEEIMEDLKPNCLVSDMFLPWTTDSAAKFGIPRLLFHGTSLFARCFAEQMSLQKPYKNVSSDSEPFVLRGLPHEVSFVRTQIPGYELQEGGDDAFSKMAKQMRDADKKSYGDVINNFEELESEYVDHYKNVFGKKAWHIGPLSLCNNRAEQKSPIDDHECLAWLNSKKPNSVVYMCFGSMATFTPAQLHETAVGLESSGQDFIWVVRNGGENEDWLPQGFEERIKGKGLMIRGWAPQVMILDHPSTGAFVTHCGWNSTLEGICAGLPMVTWPVFAEQFYNEKLVTEVLKTGVSVGNKKWQRVGEGVGSEAVKEAVERVMVGDGAAEMRSRAIYYKEMARKAVEEGGSSYNNLNALIEELSAYVPPMKQGLN
notes: full-length cDNA in pTWIN1B; E. coli BL21 (DE3)
B2: SbGT56 (Scutellaria baicalensis) (protein)
chain: MGQLHIVLVPMIAHGHMIPMLDMAKLFSSRGVKTTIIATPAFAEPIRKARESGHDIGLTTTKFPPKGSSLPDNIRSLDQVTGDLLPHFFRALELLQEPVEEIMEDLKPNCLVSDMFLPWTTDSAAKFGIPRLVFHGTSLFARCFSEQMSIQKPYKNVSSDSEPFVLRGLPHEVSFVRTQIPDYELQEGGDDAFSKMAKQMRDADKKSYGDVINSFEELESEYADYNKNVFGKKAWHIGPLKLFNNRAEQKSSQRGKESAIDDHECLAWLNSKKPNSVVYMCFGSMATFTPAQLHETAVGLESSGQDFIWVVRNGGKNEDWLPQGFEERIKGKGLMIRGWAPQVMILDHPSTGAFVTHCGWNSTLEGICAGLPMVTWPVFAEQFYNEKLVTEVLKTGVSVGNKKWQRVGEGVGSEAVKEAVERVMVGDGAAEMRSRAVYYKEMARKAVEEGGSSYNNLNALIQELSAYVPPMKQGLN
notes: as for B1
B3: SbGT30 (Scutellaria baicalensis) (protein)
chain: MGQLHIVLVPMIAHGHMIPMLDMAKLFSSRGVRTTIIATPAFAEPIRKARESGHDIGLTTTKFPPKGSSLPDNILSLDQVTHDLLPHFFRALELLQEPVEEIMEDLKPNCLVSDMFLPWTTDSAAKFGIPRLLFHGTSLFARCFAEQMSLQKPYKNVSSDSEPFVLRGLPHEVSFVRTQIPGYELQEGGDDAFSKMAKQMRDADKKSYGDVINSFEELESEYVDHYKNVFGKKAWHIGPLSLCNNRAEQKSPIDDHECLAWLNSKKPNSVVYMCFGSMATFSPAQLHETAVGLESSGQDFIWVVRNGGENEDWLPQGFEERIKGKGLMIRGWAPQVVILDHPSTGAFVTHCGWNSTLEGICAGLPMVTWPVFAEQFYNEKLVTEVLKTGVSVGNKKWQRVGEWVGSEAVKEAVEWVMVGDGAAEMRSRANYYKEMARKAVEDGGSSYNNLNALIQELSAYVPPMKQGLN
notes: as for B1

The proteins below were run on O=c1cc(-c2ccc(O)cc2)oc2cc(O)c(O)c(O)c12 (assay: HPLC glucosyltransferase assay, Lineweaver-Burk plot). Conditions: 2 mM UDP-glucose (saturating), 50 mM Tris-HCl pH 7.5, 30 °C.
Assay type: biochemical, Scutellaria baicalensis

Point of comparison: B3, Km 188 µM. Against it:
- B1 — 1.6-fold lower, 121 µM
- B2 — within 1.5-fold, 222 µM
